Data from the supplement of paper PMC10567573.

B1: RIPK4 (parent)
chain: RERMELLEEAKKMEMAKFRYILPV

Variants of: B1
Assay: protein stability index of a GFP-peptide fusion (GPS, HEK-293T) (PSI 1-6); higher = more stable
Settings: c terminus: a fixed tail appended
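Also: lentivirally expressed fusions sorted by FACS into six bins by GFP to DsRed ratio, PSI derived from sequencing read proportions per bin multiplied by bin number.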

Variant	protein stability index
RERMELLSEAKKMEMAKFRYILPV	3.06
RERMELLFEAKKMEMAKFRYILPV	2.68
RERMELLQEAKKMEMAKFRYILPV	2.03
RERMELLYEAKKMEMAKFRYILPV	2.62
RERMELLNEAKKMEMAKFRYILPV	2.04
RERMELLHEAKKMEMAKFRYILPV	2.67
RERMELLLEAKKMEMAKFRYILPV	2.11
RERMELLDEAKKMEMAKFRYILPV	2.86
RERMELLWEAKKMEMAKFRYILPV	3.05
RERMELLIEAKKMEMAKFRYILPV	2.11
RERMELLVEAKKMEMAKFRYILPV	1.69
RERMELLCEAKKMEMAKFRYILPV	3.01
RERMELLPEAKKMEMAKFRYILPV	3.14
RERMELLTEAKKMEMAKFRYILPV	3.16
RERMELLREAKKMEMAKFRYILPV	3.5
RERMELLKEAKKMEMAKFRYILPV	3.42
RERMELLGEAKKMEMAKFRYILPV	2.27
RERMELLMEAKKMEMAKFRYILPV	2.69
RERMERLEEAKKMEMAKFRYILPV	3.56
RERMECLEEAKKMEMAKFRYILPV	3.05
RERMEGLEEAKKMEMAKFRYILPV	3.54
RERMEALEEAKKMEMAKFRYILPV	3.19
RERMETLEEAKKMEMAKFRYILPV	3.49
RERMEMLEEAKKMEMAKFRYILPV	3.77

Variant	protein stability index
RERMEWLEEAKKMEMAKFRYILPV	3
RERMEILEEAKKMEMAKFRYILPV	3.98
RERMESLEEAKKMEMAKFRYILPV	3.19
RERMEQLEEAKKMEMAKFRYILPV	3.08
RERMEHLEEAKKMEMAKFRYILPV	3.87
RERMEVLEEAKKMEMAKFRYILPV	2.9
RERMENLEEAKKMEMAKFRYILPV	3.66
RERMEYLEEAKKMEMAKFRYILPV	3.83
RERMEDLEEAKKMEMAKFRYILPV	4.56
RERMEKLEEAKKMEMAKFRYILPV	3.88
REAMELLEEAKKMEMAKFRYILPV	3.48
REDMELLEEAKKMEMAKFRYILPV	3.63
REWMELLEEAKKMEMAKFRYILPV	1.73
RECMELLEEAKKMEMAKFRYILPV	3.26
RESMELLEEAKKMEMAKFRYILPV	3.85
REIMELLEEAKKMEMAKFRYILPV	2.39
REFMELLEEAKKMEMAKFRYILPV	2.58
RENMELLEEAKKMEMAKFRYILPV	3.18
REGMELLEEAKKMEMAKFRYILPV	2.58
REQMELLEEAKKMEMAKFRYILPV	4.19
RETMELLEEAKKMEMAKFRYILPV	3.68
REMMELLEEAKKMEMAKFRYILPV	2.7
REYMELLEEAKKMEMAKFRYILPV	3.25
REEMELLEEAKKMEMAKFRYILPV	4.38

Variant	protein stability index
REVMELLEEAKKMEMAKFRYILPV	2.42
RELMELLEEAKKMEMAKFRYILPV	2.3
REHMELLEEAKKMEMAKFRYILPV	3.89
REPMELLEEAKKMEMAKFRYILPV	3.84
RERMELLEEAKFMEMAKFRYILPV	2.5
RERMELLEEAKTMEMAKFRYILPV	2.9
RERMELLEEAKWMEMAKFRYILPV	2.65
RERMELLEEAKNMEMAKFRYILPV	3.23
RERMELLEEAKSMEMAKFRYILPV	2.75
RERMELLEEAKEMEMAKFRYILPV	3.46
RERMELLEEAKGMEMAKFRYILPV	2.36
RERMELLEEAKMMEMAKFRYILPV	2.78
RERMELLEEAKLMEMAKFRYILPV	2.21
RERMELLEEAKAMEMAKFRYILPV	3.43
RERMELLEEAKCMEMAKFRYILPV	3.35
RERMELLEEAKIMEMAKFRYILPV	2.37
RERMELLEEAKYMEMAKFRYILPV	2.42
RERMELLEEAKDMEMAKFRYILPV	3.3
RERMELLEEAKHMEMAKFRYILPV	3.36
RERMELLEEAKVMEMAKFRYILPV	2.82
RERMELLEEAKQMEMAKFRYILPV	3.41
RERMELLEEAKPMEMAKFRYILPV	3.5
RERMELLEEASKMEMAKFRYILPV	3.37
RERMELLEEARKMEMAKFRYILPV	2.81

Variant	protein stability index
RERMELLEEAVKMEMAKFRYILPV	2.32
RERMELLEEADKMEMAKFRYILPV	4.09
RERMELLEEAPKMEMAKFRYILPV	2.91
RERMELLEEACKMEMAKFRYILPV	2.24
RERMELLEEAGKMEMAKFRYILPV	3.04
RERMELLEEAEKMEMAKFRYILPV	3.97
RERMELLEEAHKMEMAKFRYILPV	3.05
RERMELLEEAFKMEMAKFRYILPV	2.67
RERMELLEEAQKMEMAKFRYILPV	3.17
RERMELLEEANKMEMAKFRYILPV	3.08
RERMELLEEAWKMEMAKFRYILPV	2.51
RERMELLEEAAKMEMAKFRYILPV	3.07
RERMELLEEAIKMEMAKFRYILPV	2.39
RERMELLEEAMKMEMAKFRYILPV	2.45
RERMELLEEALKMEMAKFRYILPV	4.66
RERMELLEEAYKMEMAKFRYILPV	1.08
RERMELLEEMKKMEMAKFRYILPV	3.32
RERMELLEETKKMEMAKFRYILPV	2.81
RERMELLEEYKKMEMAKFRYILPV	3.93
RERMELLEECKKMEMAKFRYILPV	4.69
RERMELLEERKKMEMAKFRYILPV	3.66
RERMELLEEWKKMEMAKFRYILPV	3.58
RERMELLEESKKMEMAKFRYILPV	3.69
RERMELLEEKKKMEMAKFRYILPV	4.38

Variant	protein stability index
RERMELLEEVKKMEMAKFRYILPV	4.15
RERMELLEEIKKMEMAKFRYILPV	2.82
RERMELLEEHKKMEMAKFRYILPV	2.94
RERMELLEEPKKMEMAKFRYILPV	3.28
RERMELLEEFKKMEMAKFRYILPV	3.48
RERMELLEEQKKMEMAKFRYILPV	3.79
RERMELLEEDKKMEMAKFRYILPV	3.99
RERMELLEEEKKMEMAKFRYILPV	3.54
RERMELLEELKKMEMAKFRYILPV	3.33
RERMELLEENKKMEMAKFRYILPV	3.85
RERMELLEEAKKAEMAKFRYILPV	3.1
RERMELLEEAKKEEMAKFRYILPV	3.19
RERMELLEEAKKGEMAKFRYILPV	3.56
RERMELLEEAKKFEMAKFRYILPV	3.01
RERMELLEEAKKKEMAKFRYILPV	3.84
RERMELLEEAKKNEMAKFRYILPV	3.8
RERMELLEEAKKQEMAKFRYILPV	3.31
RERMELLEEAKKIEMAKFRYILPV	3.59
RERMELLEEAKKSEMAKFRYILPV	3.51
RERMELLEEAKKHEMAKFRYILPV	3.13
RERMELLEEAKKPEMAKFRYILPV	2.34
RERMELLEEAKKLEMAKFRYILPV	3.37
RERAELLEEAKKMEMAKFRYILPV	3.99
RERCELLEEAKKMEMAKFRYILPV	3.69

Variant	protein stability index
RERYELLEEAKKMEMAKFRYILPV	2.82
RERPELLEEAKKMEMAKFRYILPV	3.8
RERTELLEEAKKMEMAKFRYILPV	3.53
RERVELLEEAKKMEMAKFRYILPV	2.88
RERKELLEEAKKMEMAKFRYILPV	3.74
RERIELLEEAKKMEMAKFRYILPV	3.08
RERWELLEEAKKMEMAKFRYILPV	2.81
RERDELLEEAKKMEMAKFRYILPV	4.17
RERGELLEEAKKMEMAKFRYILPV	5.3
RERNELLEEAKKMEMAKFRYILPV	3.94
REREELLEEAKKMEMAKFRYILPV	3.67
RERQELLEEAKKMEMAKFRYILPV	3.76
RERSELLEEAKKMEMAKFRYILPV	3.59
RERHELLEEAKKMEMAKFRYILPV	3.21
RERMELLESAKKMEMAKFRYILPV	3.08
RERMELLELAKKMEMAKFRYILPV	1.94
RERMELLEPAKKMEMAKFRYILPV	3.42
RERMELLEHAKKMEMAKFRYILPV	2.8
RERMELLEAAKKMEMAKFRYILPV	2.85
RERMELLENAKKMEMAKFRYILPV	3.44
RERMELLEYAKKMEMAKFRYILPV	2.49
RERMELLEQAKKMEMAKFRYILPV	3.31
RERMELLECAKKMEMAKFRYILPV	2.12
RERMELLEIAKKMEMAKFRYILPV	2.57

Variant	protein stability index
RERMELLEKAKKMEMAKFRYILPV	3.65
RERMELLERAKKMEMAKFRYILPV	2.4
RERMELLETAKKMEMAKFRYILPV	2.93
RERMELLEMAKKMEMAKFRYILPV	2.78
RERMELLEGAKKMEMAKFRYILPV	3.79
RERMELLEVAKKMEMAKFRYILPV	2.43
RERMELLEFAKKMEMAKFRYILPV	2.37
RERMELLEDAKKMEMAKFRYILPV	3.91
RERMELLEWAKKMEMAKFRYILPV	2.16
RERMELAEEAKKMEMAKFRYILPV	3.35
RERMELPEEAKKMEMAKFRYILPV	4.01
RERMELWEEAKKMEMAKFRYILPV	2.43
RERMELNEEAKKMEMAKFRYILPV	3.54
RERMELDEEAKKMEMAKFRYILPV	3.43
RERMELEEEAKKMEMAKFRYILPV	3.74
RERMELTEEAKKMEMAKFRYILPV	4.19
RERMELYEEAKKMEMAKFRYILPV	2.52
RERMELQEEAKKMEMAKFRYILPV	3.87
RERMELMEEAKKMEMAKFRYILPV	3.48
RERMELCEEAKKMEMAKFRYILPV	3.94
RERMELSEEAKKMEMAKFRYILPV	3.66
RERMELIEEAKKMEMAKFRYILPV	3.42
RERMELFEEAKKMEMAKFRYILPV	3.4
RERMELKEEAKKMEMAKFRYILPV	3.99

Variant	protein stability index
RERMELVEEAKKMEMAKFRYILPV	2.78
RYRMELLEEAKKMEMAKFRYILPV	2.74
RWRMELLEEAKKMEMAKFRYILPV	1.47
RERMRLLEEAKKMEMAKFRYILPV	2.97
RERMLLLEEAKKMEMAKFRYILPV	2.75
RERMNLLEEAKKMEMAKFRYILPV	2.87
RERMPLLEEAKKMEMAKFRYILPV	3.01
RERMYLLEEAKKMEMAKFRYILPV	2.29
RERMSLLEEAKKMEMAKFRYILPV	2.11
RERMVLLEEAKKMEMAKFRYILPV	2.29
RERMILLEEAKKMEMAKFRYILPV	2.26
RERMCLLEEAKKMEMAKFRYILPV	2.63
RERMGLLEEAKKMEMAKFRYILPV	2.6
RERMHLLEEAKKMEMAKFRYILPV	1.99
RERMMLLEEAKKMEMAKFRYILPV	3.12
RERMALLEEAKKMEMAKFRYILPV	2.9
RERMKLLEEAKKMEMAKFRYILPV	2.36
RERMTLLEEAKKMEMAKFRYILPV	2.34
RERMWLLEEAKKMEMAKFRYILPV	2.23
RERMFLLEEAKKMEMAKFRYILPV	2.81
